# From patent publication US20200283508A1 (TEXAS A AND M UNIVERSITY SYSTEM, published 2020)
# Where a chain is given by its changes, count along the chain named.
# T1: Coa-R0474-505 (recombinant protein) (Staphylococcus aureus strain Newman)
# T1 chain: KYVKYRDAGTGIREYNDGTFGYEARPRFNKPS
# T2: Efb-N30-105 (Staphylococcus aureus strain Newman, UniProt A6QG59 30-105)
# T2 sequence: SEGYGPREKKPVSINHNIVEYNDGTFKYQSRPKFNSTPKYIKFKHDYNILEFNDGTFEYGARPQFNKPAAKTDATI
# B1: FBE5-A12 (scFv, V domains shown)
# VH: QVQLVESGGGVVQPGRSLRLSCAASGFTFSSYGMHWVRQAPGKGLEWVAVISYDGSNKYYADSVKGRFTISRDNSKNTLYLQMNSLRGEDTAVYYCAREGGWEPNGLDYWGQGTLVTVSS
# VL: QAVLTQPPSASGTPGQRVTISCSGSDFNVGTNYVNWYQQLPGSAPKLLIYRNNQRPSGVPDRFSGSKSGTSATLGITGLQTGDEADYYCGTWDSSLSAEVFGGGTKLTVL
# B2: FBE5-D9 (scFv, V domains shown)
# VH: QVQLVESGGGVVQPGRSLRLSCAASGFTFSSYGMHWVRQAPGKGLEWVAVISYDGSNKYYADSVKGRFTISRDNSKNTLYLQMNSLRAEDTAVYYCAKNQEWLVPGYWGQGTLVTVSS
# VL: QSALTQPASVSGSPGQSITISCTGTSSDVGGYNYVSWYQQHPGKAPKLMIYDVSNRPSGVSNRFSGSKSGNTASLTISGLQAEDEADYYCSSYTSSSTLVFGGGTKLTVL
# B3: FBE5-D10 (scFv, V domains shown)
# VH: QVQLVQSGGGVVQPGRSLRLSCAASGFTFSNYGMHWVRQAPGKGLEWVAVISYDGSNKYYADSVKGRFTISRDNSKNTLYLQMNSLRAEDTAVYYCAKDSREQWLAHWGQGTLVTVSS
# VL: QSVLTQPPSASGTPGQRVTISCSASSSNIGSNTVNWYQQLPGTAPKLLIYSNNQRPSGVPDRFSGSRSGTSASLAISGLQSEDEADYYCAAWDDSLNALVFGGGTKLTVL
# B4: FBE5-A5 (scFv, V domains shown)
# VH: EVQLVQSGGGVVQPGRSLRLSCAASGFTFSSYGMHWVRQAPGKGLEWVAVISYDGSNKYYADSVKGRFTISRDNSKNTLYLQMNSLRAEDTAVYYCAKAGPDSYGYGMDVWGQGTTVTVSS
# VL: not shown
# B5: FBE5-A6 (scFv, V domains shown)
# VH: B4 VH with E1Q, P101D, S103D, Y106H, G107Y, M108F, V110Y, T116L
# VL: not shown
# B6: FBE5-B9 (scFv, V domains shown)
# VH: EVQLVESRGGVVQPGRSLRLSCAASGFTFSSYGMHWVRQAPGRGLEWVAVISYDGSNKYYADSVKGRFTISRDNSKNTLYLQMNGLRSDDTAVYYCARGGDDYGDYFDYWGQGTLVTVSS
# VL: QSVLTQPPSVSAAPGQKVTISCSGSSSNIGNNYVSWYQQLPGTAPKLLIYDNNKRPSGIPDRFSGSKSGTSATLGITGLQTGDEADYYCGTWDSSLSAAVFGGGTKLTVL
# B7: LIG40-D8 (scFv, V domains shown)
# VH: EVQLVESGGGVVQPGRSLRLSCAASGFTFSSYGMHWVRQAPGKGLEWVAVIWYDGSNKYYADSVKGRFTISRDNSKNTLYLQMNSLRAEDTAVYYCARDYHGDGFDYWGQGTLVTVSS
# VL: DIQMTQSPSSLSASVGDTVTITCRASQDINNYLAWFQQKPGKAPKSLISAASSLQNGVPLRFSGSASGADFTLTISGLQPEDSGTYYCQQYDVFPITFGPGTKVDIK
# B8: FBE5-C1 (scFv, V domains shown)
# VH: EVQLVETRGGVVQPGRSLRLSCAASGFTFSSYGMHWVRQAPGKGLEWVAVISYDGSNKYYADSVKGRFTISRDNSKNTLYLQMNSLRAEDTAVYYCAREGTYYYDSSGYYEGGFDYWGQGTLVTVSS
# VL: QSVLTQPPSASGTPGQRVTISCSGSSSNIGSGPVNWYQQLPGTAPKLLIYSDTRRPSGIPDRLSGSKSGTSASLGISGLQSEDEADYYCAAWDDSLNGYAFGSGTKVTVL
# B9: FBE5-C8 (scFv, V domains shown)
# VH: QMQLVQSGGGVVQPGRSLRLSCAASGFIFSNYGMHWVRQAPGKGLEWVAVISYDGSNKYYADSVKGRFTISRDNSKNTLYLQMDSLRAEDTAVYYCAREGVGGDYGDLPTGPYYYYGMDVWGQGTTVTVSS
# VL: B6 VL with Y33S, G90E, A99V
# B10: FBE5-F9 (scFv, V domains shown)
# VH: QMQLVQSGGGVVQPGRSLRLSCAASGFTFSSYGMHWVRQAPGKGLEWVAVISYDGSNKYYADSVKGRFTISRDNSKNTLYLQMNSLRAEDTAVYYCAKEGDGDYGGVLDYWGQGTLVTVSS
# VL: B6 VL with G30E, N31K, A99V
# Target: T3, Coa-C (Coa 311-636) (Staphylococcus aureus strain Newman, UniProt P08515 1-218 = GST)
# Assay: not given
row,Binder,EC50 (read off the curve) [µg/mL]
1,B1,~0.06
2,B2,~0.08
3,B3,~0.1

# Target: T4, Coa-F (Coa 311-505) (Staphylococcus aureus strain Newman, UniProt P08515 1-218 = GST)
# Assay: not given
row,Binder,EC50 (read off the curve) [µg/mL]
1,B2,~0.06
2,B3,~0.09

# Target: T1, Coa-R0474-505 (recombinant protein)
# Assay: not given
row,Binder,EC50 (read off the curve) [µg/mL]
1,B2,~0.1
2,B3,~0.08
3,B4,~0.2
4,B5,~0.2
5,B6,~0.2

# Target: T2, Efb-N30-105
# Assay: not given
row,Binder,EC50 (read off the curve) [µg/mL]
1,B2,~0.1
2,B3,~0.2

# Target: T5, Efb-A30-67 (Staphylococcus aureus strain Newman, UniProt P08515 1-218 = GST; A6QG59 30-67)
# Assay: not given
row,Binder,EC50 (read off the curve) [µg/mL]
1,B3,~0.1
2,B4,~0.4

# Target: T6, recombinant Efb-O (Efb 68-98) (Staphylococcus aureus strain Newman, UniProt P08515 1-218 = GST)
# Assay: not given
row,Binder,EC50 (read off the curve) [µg/mL]
1,B2,~0.3
2,B3,~0.3

# Target: T3, Coa-C (Coa 311-636)
# Assay: not given
# Remark: another data set of the same source
row,Binder,EC50 (read off the curve) [µg/mL]
1,B7,~0.01

# Target: T7, Coa-R (Coa 506-636) (Staphylococcus aureus strain Newman)
# Assay: not given
row,Binder,EC50 (read off the curve) [µg/mL]
1,B7,~0.01

# Target: T4, Coa-F (Coa 311-505)
# Assay: not given
# Remark: another data set of the same source
row,Binder,EC50 (read off the curve) [µg/mL]
1,B7,~0.01

# Target: T8, BSA (bovine, UniProt P02769 25-607)
# T8 construct: also called bovine serum albumin
# T8 sequence (P02769 25-607 limits assumed): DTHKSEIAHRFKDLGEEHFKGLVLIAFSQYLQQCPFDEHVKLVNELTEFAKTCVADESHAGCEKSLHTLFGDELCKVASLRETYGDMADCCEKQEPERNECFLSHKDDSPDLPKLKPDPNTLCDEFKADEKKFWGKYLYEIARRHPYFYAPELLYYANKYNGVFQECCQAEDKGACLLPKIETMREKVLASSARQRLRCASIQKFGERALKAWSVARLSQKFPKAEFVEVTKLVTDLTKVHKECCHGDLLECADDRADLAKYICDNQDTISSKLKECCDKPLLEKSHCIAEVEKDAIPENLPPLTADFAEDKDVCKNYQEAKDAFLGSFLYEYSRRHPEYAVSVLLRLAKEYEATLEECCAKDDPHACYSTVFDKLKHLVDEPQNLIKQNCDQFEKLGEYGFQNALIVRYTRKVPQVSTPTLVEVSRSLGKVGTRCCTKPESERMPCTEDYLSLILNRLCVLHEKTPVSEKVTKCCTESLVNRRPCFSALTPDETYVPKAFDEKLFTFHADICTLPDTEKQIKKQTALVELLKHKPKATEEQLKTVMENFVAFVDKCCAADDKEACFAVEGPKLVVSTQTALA
# Assay: solid-phase binding assay (FIG. 24)
row,Binder,binding result
1,B7,no binding

# Target: T2, Efb-N30-105
# Assay: solid-phase binding assay, titration (FIG. 24)
row,Binder,binding result
1,B7,no binding

# Target: T5, Efb-A30-67
# Assay: solid-phase binding assay, titration (FIG. 24)
row,Binder,binding result
1,B7,no binding

# Target: T6, recombinant Efb-O (Efb 68-98)
# Assay: solid-phase binding assay, titration (FIG. 24)
row,Binder,binding result
1,B7,no binding

# Target: T7, Coa-R (Coa 506-636)
# Assay: ELISA, antigen coated 200 ng/well, scFv-Fc at 0.5 µg/ml
row,Binder,binding result
1,B1,no binding (tested: 0.5 µg/ml)
2,B2,no binding (tested: 0.5 µg/ml)
3,B3,no binding (tested: 0.5 µg/ml)
4,B4,no binding (tested: 0.5 µg/ml)
5,B5,no binding (tested: 0.5 µg/ml)
6,B6,no binding (tested: 0.5 µg/ml)
7,B8,no binding (tested: 0.5 µg/ml)
8,B9,no binding (tested: 0.5 µg/ml)
9,B10,no binding (tested: 0.5 µg/ml)

# Target: T3, Coa-C (Coa 311-636)
# Assay: apparent Kd from half-maximal binding in ELISA (GraphPad Prism)
row,Binder,Kd [nM]
1,B1,0.555
2,B2,0.779
3,B3,1.4
4,B4,5.34
5,B5,1.24
6,B6,1.74
7,B8,1.13
8,B9,13.5
9,B10,2.85

# Target: T4, Coa-F (Coa 311-505)
# Assay: as above
row,Binder,Kd [nM]
1,B1,0.647
2,B2,0.536
3,B3,0.95
4,B4,1.47
5,B5,1.15
6,B6,1.12
7,B8,4.59
8,B9,7
9,B10,1.63

# Target: T1, Coa-R0474-505 (recombinant protein)
# Assay: as above
row,Binder,Kd [nM]
1,B1,2.44
2,B2,1.14
3,B3,0.856
4,B4,1.86
5,B5,1.9
6,B6,2.19
7,B8,24.3
8,B10,3.16

# Target: T2, Efb-N30-105
# Assay: as above
row,Binder,Kd [nM]
1,B2,1.31
2,B3,1.97
3,B4,3.24
4,B5,3.54
5,B6,3.45
6,B10,6.01

# Target: T5, Efb-A30-67
# Assay: as above
row,Binder,Kd [nM]
1,B2,4.48
2,B3,1.57
3,B4,4.38
4,B5,8.54
5,B6,25.9
6,B8,40.9
7,B10,21.5

# Target: T6, recombinant Efb-O (Efb 68-98)
# Assay: as above
row,Binder,Kd [nM]
1,B2,2.68
2,B3,3.65
3,B4,4.27
4,B5,13
5,B6,8.27
6,B10,7.97

# Target: T7, Coa-R (Coa 506-636)
# Assay: as above
# Procedure: (§1) As well, binding was tested against Coa fragments, namely Coa-C₃₁₁₋₆₃₆, Coa-F₃₁₁₋₅₀₅, Coa-R0₄₇₄₋₅₀₅ and Coa-R₅₀₆₋₆₃₆. Recombinant proteins Efb-N₃₀₋₁₀₅, Efb-A₃₀₋₆₇, Efb-O₆₈₋₉₈, Coa-C₃₁₁₋₆₃₆, Coa-F₃₁₁₋₅₀₅, Coa-R0₄₇₄₋₅₀₅ and Coa-R₅₀₆₋₆₃₆ were diluted in 50 mM sodium carbonate pH 9.6 and immobilized at the concentration of 200 ng/well for 1 hour at room temperature. Immobilized proteins were probed for recognition in a solid-phase binding assay with different quantities of LIG40 antibodies after blocking and washing. After washing, varying concentrations of LIG40 scFv-Fc antibodies were diluted in 2% BSA+1×PBS+0.05% Tween-20 and incubated with the immobilized proteins for 1 hour at room temperature with shaking at 250 rpm. Bound scFv-Fcs were detected using polyclonal α-human IgG HRP-conjugated Ab diluted to 1:10000 in 2% BSA+1×PBS+0.05% Tween-20. HRP-conjugated Ab was incubated for 1 hour at room temperature with shaking at 250 rpm. HRP signal was developed with Sigma FAST-OPD using manufacturers guidelines.
row,Binder,Kd [nM]
1,B7,0.0862

# Target: T4, Coa-F (Coa 311-505)
# Assay: as above
# Remark: another data set of the same source
# Procedure: as §1
row,Binder,Kd [nM]
1,B7,0.112

# Target: T1, Coa-R0474-505 (recombinant protein)
# Assay: as above
# Remark: another data set of the same source
# Procedure: as §1
row,Binder,Kd [nM]
1,B7,2.52

# Target: T3, Coa-C (Coa 311-636)
# Assay: apparent Kd from half-maximal binding in ELISA (GraphPad Prism); column head prints M, the text prints µM
row,Binder,Kd [nM]
1,B7,0.0939
